Assay results reported in article PMC9482650, “Quantitative fragmentomics allow affinity mapping of interactomes” (Nature Communications, 2022).

What was measured:
Experiment in all cases: holdup assay
Set-up in all cases: key: below the threshold = too weak to quantify, mostly under pKd 3.1 to 4
[1] = molecular target: DLG4_3, P78352
[2] = molecular target: GRID2IP_2, A4D2P6
[3] = molecular target: IL16_1, Q14005
[4] = molecular target: LNX1_1, Q8TBB1
[5] = molecular target: MAGI1_2, Q96QZ7
[6] = molecular target: TJP1_2, Q07157
Chain of TJP1_2, Q07157 (Q07157 181-274): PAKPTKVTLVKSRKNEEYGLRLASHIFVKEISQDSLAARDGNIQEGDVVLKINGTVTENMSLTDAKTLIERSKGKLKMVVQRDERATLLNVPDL

[7] = molecular target: AHNAK1, Q09666
Chain of AHNAK1, Q09666 (Q09666 4-100): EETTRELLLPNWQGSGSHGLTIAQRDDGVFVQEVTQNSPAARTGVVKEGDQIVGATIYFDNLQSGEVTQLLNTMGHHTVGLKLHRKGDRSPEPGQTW

[8] = molecular target: T1, ARHGAP21, Q5T5U3
T1 sequence (Q5T5U3 45-169, limits assumed, looked up): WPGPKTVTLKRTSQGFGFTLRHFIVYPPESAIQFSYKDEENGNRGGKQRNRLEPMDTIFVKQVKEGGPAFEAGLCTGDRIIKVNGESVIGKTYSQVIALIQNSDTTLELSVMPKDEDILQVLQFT

[9] = molecular target: T2, ARHGEF11, O15085
T2 sequence (O15085 42-136, limits assumed, looked up): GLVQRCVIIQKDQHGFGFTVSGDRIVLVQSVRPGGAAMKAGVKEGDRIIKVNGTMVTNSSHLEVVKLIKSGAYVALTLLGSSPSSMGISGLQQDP

[10] = molecular target: FRMPD2_3, Q68DX3
Chain of FRMPD2_3, Q68DX3 (Q68DX3 1073-1166): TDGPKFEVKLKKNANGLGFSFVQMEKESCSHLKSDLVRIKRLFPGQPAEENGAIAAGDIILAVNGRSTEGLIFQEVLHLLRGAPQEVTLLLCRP

[11] = molecular target: GRID2IP_1, A4D2P6
Chain of GRID2IP_1, A4D2P6 (A4D2P6 1-87): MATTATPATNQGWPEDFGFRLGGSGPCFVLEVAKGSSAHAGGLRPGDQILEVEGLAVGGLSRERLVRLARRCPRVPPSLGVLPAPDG

[12] = molecular target: GRIP2_7, Q9C0E4
Chain of GRIP2_7, Q9C0E4 (Q9C0E4 934-1023): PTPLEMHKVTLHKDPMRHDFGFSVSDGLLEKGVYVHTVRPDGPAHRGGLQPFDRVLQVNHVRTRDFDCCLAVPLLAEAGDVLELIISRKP

[13] = molecular target: T3, HTRA4, P83105
T3 sequence (P83105 378-476, limits assumed, looked up): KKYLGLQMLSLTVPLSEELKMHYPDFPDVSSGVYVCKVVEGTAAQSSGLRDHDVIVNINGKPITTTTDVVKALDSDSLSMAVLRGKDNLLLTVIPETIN

[14] = molecular target: Inadl_2, Q8NI35
Chain of Inadl_2, Q8NI35 (Q8NI35 238-335): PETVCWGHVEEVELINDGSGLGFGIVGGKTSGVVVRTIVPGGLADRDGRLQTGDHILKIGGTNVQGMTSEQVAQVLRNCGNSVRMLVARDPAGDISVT

[15] = molecular target: Inadl_4, Q8NI35
Chain of Inadl_4, Q8NI35 (Q8NI35 547-651): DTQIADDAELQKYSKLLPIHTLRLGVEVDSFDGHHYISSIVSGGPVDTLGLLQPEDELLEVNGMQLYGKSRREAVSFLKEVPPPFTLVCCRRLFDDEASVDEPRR

[16] = molecular target: MAGI2_6, Q86UL8
Chain of MAGI2_6, Q86UL8 (Q86UL8 1141-1229): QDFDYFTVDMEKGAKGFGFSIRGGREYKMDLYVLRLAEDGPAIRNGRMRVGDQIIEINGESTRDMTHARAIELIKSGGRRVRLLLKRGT

[17] = molecular target: MAGI3_2, Q5TCQ9
Chain of MAGI3_2, Q5TCQ9 (Q5TCQ9 398-503): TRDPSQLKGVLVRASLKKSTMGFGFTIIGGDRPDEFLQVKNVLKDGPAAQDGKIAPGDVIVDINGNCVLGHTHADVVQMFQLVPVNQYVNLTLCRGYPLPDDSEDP

[18] = molecular target: T4, MPP6, Q9NZW5
T4 sequence (Q9NZW5 125-219, limits assumed, looked up): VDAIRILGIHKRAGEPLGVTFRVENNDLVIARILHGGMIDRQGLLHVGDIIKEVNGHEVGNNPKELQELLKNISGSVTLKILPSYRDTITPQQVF

[19] = molecular target: T5, NHERF3_1, Q5T2W1
T5 sequence (Q5T2W1 4-100, limits assumed, looked up): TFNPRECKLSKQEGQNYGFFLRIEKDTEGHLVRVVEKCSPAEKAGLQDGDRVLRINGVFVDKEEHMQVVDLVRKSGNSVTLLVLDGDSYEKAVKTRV

[20] = molecular target: T6, PDZD7_3, Q9H5P4
T6 sequence (Q9H5P4 857-944, limits assumed, looked up): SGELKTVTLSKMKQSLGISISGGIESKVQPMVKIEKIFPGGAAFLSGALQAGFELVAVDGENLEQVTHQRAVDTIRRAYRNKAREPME

[21] = molecular target: T7, PTPN13_1, Q12923
T7 sequence (Q12923 1088-1188, limits assumed, looked up): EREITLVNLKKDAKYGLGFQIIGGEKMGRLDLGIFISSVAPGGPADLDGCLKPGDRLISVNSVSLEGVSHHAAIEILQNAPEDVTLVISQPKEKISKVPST

[22] = molecular target: PTPN3, P26045
Chain of PTPN3, P26045 (P26045 505-587): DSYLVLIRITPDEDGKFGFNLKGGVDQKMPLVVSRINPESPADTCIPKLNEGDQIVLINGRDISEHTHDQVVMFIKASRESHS

[23] = molecular target: T8, RADIL, Q96JH8
T8 sequence (Q96JH8 971-1071, limits assumed, looked up): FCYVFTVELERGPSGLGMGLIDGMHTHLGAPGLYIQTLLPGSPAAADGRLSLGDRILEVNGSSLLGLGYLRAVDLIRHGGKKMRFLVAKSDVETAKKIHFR

[24] = molecular target: T9, SIPA1L2, Q9P2F8
T9 sequence (Q9P2F8 945-1036, limits assumed, looked up): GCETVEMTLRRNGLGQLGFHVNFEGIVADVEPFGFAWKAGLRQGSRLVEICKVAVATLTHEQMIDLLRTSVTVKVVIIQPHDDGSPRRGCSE

[25] = molecular target: T10, SNTG1, Q9NSN8
T10 sequence (Q9NSN8 52-150, limits assumed, looked up): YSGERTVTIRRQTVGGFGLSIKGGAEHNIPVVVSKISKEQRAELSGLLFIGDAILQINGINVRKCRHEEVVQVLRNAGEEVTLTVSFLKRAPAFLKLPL

[26] = molecular target: T11, TX1BP3, O14907
T11 sequence (O14907 10-122, limits assumed, looked up): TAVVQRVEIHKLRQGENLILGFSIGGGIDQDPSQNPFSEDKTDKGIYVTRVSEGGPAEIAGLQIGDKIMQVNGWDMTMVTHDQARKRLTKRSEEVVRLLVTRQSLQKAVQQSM

[27] = plain residues with an end cap or a label only (N-terminal biotin on a linker: ado-ado)
[28] = plain residues with an end cap or a label only (N-terminal biotin on a linker: ttds)
[29] = plain residues with an end cap or a label only (N-terminal biotin on a linker: ahx)

Chain of IL16_1, Q14005 (Q14005 210-306): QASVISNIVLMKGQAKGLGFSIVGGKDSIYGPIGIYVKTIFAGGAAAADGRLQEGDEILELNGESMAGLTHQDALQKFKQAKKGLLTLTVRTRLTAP
Chain of LNX1_1, Q8TBB1 (Q8TBB1 261-371): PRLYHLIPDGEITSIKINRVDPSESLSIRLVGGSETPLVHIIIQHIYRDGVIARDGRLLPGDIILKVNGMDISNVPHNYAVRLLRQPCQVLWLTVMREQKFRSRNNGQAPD
Chain of DLG4_3, P78352 (P78352 306-403): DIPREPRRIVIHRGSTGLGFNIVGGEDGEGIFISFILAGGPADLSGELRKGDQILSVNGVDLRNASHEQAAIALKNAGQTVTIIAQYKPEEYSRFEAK
Chain of MAGI1_2, Q96QZ7 (Q96QZ7 456-580): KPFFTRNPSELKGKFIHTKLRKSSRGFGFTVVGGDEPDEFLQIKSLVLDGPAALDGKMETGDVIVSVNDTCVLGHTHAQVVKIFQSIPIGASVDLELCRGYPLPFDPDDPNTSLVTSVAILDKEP
Chain of GRID2IP_2, A4D2P6 (A4D2P6 272-370): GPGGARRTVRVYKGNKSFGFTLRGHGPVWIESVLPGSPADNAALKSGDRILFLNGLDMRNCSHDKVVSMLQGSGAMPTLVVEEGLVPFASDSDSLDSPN

Binder: KSRVAFFEEL [NF2, P35240]
- pKd [1, 27]: 3.52
- pKd [2, 27]: 3.59
- pKd [3, 27]: 3.5
- pKd [4, 27]: 3.73
- pKd [5, 27]: 3.53
- pKd [6, 27]: 3.51

Binder: SVWLRKETRV [CYSLTR2, Q9NS75]
- pKd [7, 28]: below the threshold
- pKd [8, 28]: below the threshold
- pKd [9, 28]: 4.46
- pKd [1, 28]: 6.55
- pKd [10, 28]: 3.57
- pKd [11, 28]: below the threshold
- pKd [2, 28]: 3.45
- pKd [12, 28]: below the threshold
- pKd [13, 28]: 3.38
- pKd [3, 28]: 3.92
- pKd [14, 28]: below the threshold
- pKd [15, 28]: below the threshold
- pKd [4, 28]: 3.59
- pKd [5, 28]: 5.63
- pKd [16, 28]: 3.51
- pKd [17, 28]: 5.75
- pKd [18, 28]: below the threshold
- pKd [19, 28]: 4.8
- pKd [20, 28]: 4.86
- pKd [21, 28]: 3.43
- pKd [22, 28]: 4.68
- pKd [23, 28]: 3.7
- pKd [24, 28]: below the threshold
- pKd [25, 28]: 4.43
- pKd [6, 28]: below the threshold
- pKd [26, 28]: 4.75

Binder: HTHSYIETHV [CNKSR2, Q8WXI2]
- pKd [7, 29]: below the threshold
- pKd [8, 29]: below the threshold
- pKd [9, 29]: below the threshold
- pKd [1, 29]: 3.74
- pKd [10, 29]: 3.87
- pKd [11, 29]: below the threshold
- pKd [2, 29]: below the threshold
- pKd [12, 29]: below the threshold
- pKd [13, 29]: 3.9
- pKd [3, 29]: 3.9
- pKd [14, 29]: below the threshold
- pKd [15, 29]: below the threshold
- pKd [4, 29]: 3.85
- pKd [5, 29]: 3.9
- pKd [16, 29]: 4.41
- pKd [17, 29]: 4.69
- pKd [18, 29]: below the threshold
- pKd [19, 29]: 5.14
- pKd [20, 29]: 4.51
- pKd [21, 29]: below the threshold
- pKd [22, 29]: 4.58
- pKd [23, 29]: 4.22
- pKd [24, 29]: below the threshold
- pKd [25, 29]: 4.9
- pKd [6, 29]: below the threshold
- pKd [26, 29]: 5.47

Binder: SRPQRTQTQV [HPV67-E6, A4U7F2]
- pKd [7, 28]: below the threshold
- pKd [8, 28]: below the threshold
- pKd [9, 28]: 4.05
- pKd [1, 28]: 4.23
- pKd [10, 28]: below the threshold
- pKd [11, 28]: below the threshold
- pKd [2, 28]: below the threshold
- pKd [12, 28]: below the threshold
- pKd [13, 28]: below the threshold
- pKd [3, 28]: below the threshold
- pKd [14, 28]: below the threshold
- pKd [15, 28]: below the threshold
- pKd [4, 28]: below the threshold
- pKd [5, 28]: 5.22
- pKd [16, 28]: below the threshold
- pKd [17, 28]: 5.42
- pKd [18, 28]: below the threshold
- pKd [19, 28]: 3.98
- pKd [20, 28]: 3.65
- pKd [21, 28]: below the threshold
- pKd [22, 28]: 3.95
- pKd [23, 28]: below the threshold
- pKd [24, 28]: below the threshold
- pKd [25, 28]: below the threshold
- pKd [6, 28]: below the threshold
- pKd [26, 28]: 4.03
